# From patent US20040006022A1 (Harvard, published 2004)
# Where two headings read alike, the source gives them in different places.
# T1: recombinant water-soluble 'empty' HLA-DR4 (DRB1*0401) (human)
# T1 chain 1: not shown
# T1 chain 2: not shown
# T2: recombinant water-soluble 'empty' HLA-DR1 (DRB1*0101) (human)
# T2 chain 1: not shown
# T2 chain 2: not shown
# T3: HLA-DR1 on L fibroblasts transfected with HLA-DR1 (L57.23) (human)
# T3 chain 1: not shown
# T3 chain 2: not shown
# T4: HLA-DR4 on L fibroblasts transfected with HLA-DR4 (human)
# T4 chain 1: not shown
# T4 chain 2: not shown
# Legend:
# [1] = biological target: T1, recombinant water-soluble 'empty' …; assay: competitive binding ELISA on recombinant HLA-DR4; competitor biotinylated YEAK
# [2] = biological target: T1, recombinant water-soluble 'empty' …
# [3] = biological target: T2, recombinant water-soluble 'empty' …; assay: competitive binding ELISA on recombinant HLA-DR1; competitor biotinylated YEAK
# [4] = biological target: T3, HLA-DR1 on L fibroblasts transfected …; assay: cell-based or functional assay
# [5] = biological target: T4, HLA-DR4 on L fibroblasts transfected …; assay: cell-based or functional assay
# [6] = biological target: T2, recombinant water-soluble 'empty' …
binder,measurement,setting,value
"APKYVKQNTLKLATA (modifications not checked) [HA 306-318 bracketed by alanines at N- and C-terminals, …]",affinity determined by competition,[1],8.2 µM
same,affinity determined by competition,[2],26 µM
same,affinity determined by competition,[3],3.3 µM
same,inhibition of the response of 3.19 T cells (IL-2 secretion),[4],> 98%
same,inhibition of the response of 19.3 T cells (IL-2 secretion),[4],> 95%
same,inhibition of the DR4 3838 T cell clone (IL-2 secretion),[5],< 60%
same,inhibition of the DR4 D3 T cell clone (IL-2 secretion),[5],< 60%
same,affinity determined by competition,[6],13 µM
